According to paper PMC5999394, “Design principles of a microtubule polymerase” (eLife, 2018):
Values belong to the binder of their own block, whether it stands above or below them.

Tests used:
[1] = target: the molecule itself; assay: single-molecule photobleaching (TIRF); fluorescence intensity trace of stationary Stu2-eGFP; steps of photobleaching counted
[2] = target: T1, β:T238A yeast microtubules (polymerized Tub2:T238A αβ-tubulin) (S. cerevisiae, UniProt P09733 1-447; P02557 1-457, T238A); assay: TIRF microscopy of Stu2-eGFP on dynamic microtubules (kymographs); axoneme-seeded unlabeled dynamic yeast microtubules on the cover slip; Stu2-eGFP variant (100-200 nM) with 0.5-0.8 μM unpolymerized yeast tubulin in imaging buffer (1X PEM, 50 µM GTP, 0.1 mg/mL BSA, antifade); 30°C; conditions: both partners purified
T1 construct: Tub1p (yeast α-tubulin), S. cerevisiae; Tub2p (yeast β-tubulin), S. cerevisiae; also called β:T238A microtubules; mutant microtubules

[3] = target: T2, plus-end blocked yeast αβ-tubulin (β:T175R,V179R) (S. cerevisiae, UniProt P09733 1-447; P02557 1-457, T175R | V179R); assay: TIRF microscopy of Stu2-eGFP on stabilized microtubules; GTPγS-stabilized wild-type yeast microtubules held on the cover slip by His-Tag antibody; 100 nM Stu2-eGFP flowed in without or with 1 μM unpolymerized tubulin (wild type or mutant; mixed on ice for 10 min); imaging buffer; 30°C; conditions: both partners purified
T2 construct: Tub1p (yeast α-tubulin), S. cerevisiae; Tub2p (yeast β-tubulin), S. cerevisiae; also called LR1

[4] = target: T3, minus-end blocked yeast αβ-tubulin (α:T350E) (S. cerevisiae, UniProt P09733 1-447; P02557 1-457, T350E); assay: as above; conditions: both partners purified
T3 construct: Tub1p (yeast α-tubulin), S. cerevisiae; Tub2p (yeast β-tubulin), S. cerevisiae; also called T350E α-tubulin

[5] = target: T4, wild-type yeast microtubules (polymerized wild-type yeast αβ-tubulin) (S. cerevisiae, UniProt P09733 1-447; P02557 1-457); assay: single-molecule TIRF microscopy, residence time on the growing microtubule end; 5 nM Stu2-eGFP variant with 1-1.5 µM unlabeled wild-type yeast tubulin; 100 ms streaming; one-phase exponential fit of the dwell times; 30°C; conditions: both partners purified
T4 construct: Tub1p (yeast α-tubulin), S. cerevisiae; Tub2p (yeast β-tubulin), S. cerevisiae; Polymer of m2; also called microtubule lattice; microtubule end

[6] = target: T4, wild-type yeast microtubules …; assay: TIRF microscopy, fluorescence intensity of the Stu2-eGFP spot on the growing microtubule end; end intensity dynamic assay; 5-300 nM Stu2-eGFP (titration, hyperbolic fit; apparent) or 200 nM variant; 0.8 μM wild-type yeast tubulin; 30°C; conditions: both partners purified
[7] = target: T5, side-blocked yeast αβ-tubulin (β:F281A) (S. cerevisiae, UniProt P09733 1-447; P02557 1-457, F281A); assay: SEC; gel filtration on Shodex KW-803 in BRB80 (80 mM PIPES pH 6.9, 1 mM MgCl2, 1 mM EGTA) with 50 μM GTP; 1 μM TOG1-tail and 1 μM tubulin, alone or mixed, equilibrated on ice for 20 min; conditions: both partners purified
T5 construct: Tub1p (yeast α-tubulin), S. cerevisiae; Tub2p (yeast β-tubulin), S. cerevisiae; also called Tub2:F281A

[8] = target: T6, wild-type yeast αβ-tubulin (unpolymerized) (S. cerevisiae, UniProt P09733 1-447; P02557 1-457); assay: as above; conditions: both partners purified
T6 construct: Tub1p (yeast α-tubulin), S. cerevisiae; Tub2p (yeast β-tubulin), S. cerevisiae; also called WT tubulin; unpolymerized tubulin

[9] = target: T7, lateral-interface mutant yeast αβ-tubulin (α:H284A) (S. cerevisiae, UniProt P09733 1-447; P02557 1-457, H284A); assay: as above; conditions: both partners purified
T7 construct: Tub1p (yeast α-tubulin), S. cerevisiae; Tub2p (yeast β-tubulin), S. cerevisiae; also called Tub1-H284A; Tub1:H284A

[10] = target: T2, plus-end blocked yeast αβ-tubulin …; assay: AUC; sedimentation velocity, 50,000 rpm, 20°C, absorbance at 229 nm; RB100 (25 mM Tris pH 7.5, 100 mM NaCl, 1 mM MgCl2, 1 mM EGTA) with 20 µM GTP; 0.3 µM tubulin with 0.1-3 µM TOG1-tail; isotherms fitted with a 1:1 effective-particle model; conditions: both partners purified

- binding result [2]: binds
- binding result [3]: binds
- binding result [4]: binds
- characteristic residence time on the growing microtubule end [5]: 2.2 s
- EC50 [6]: 19 nM
B1: wild-type Stu2-eGFP (Stu2 residues 1–888, full-length; dimer) (natural protein, S. cerevisiae, UniProt P46675 1-888, looked up)
chain: MSGEEEVDYTTLPLEERLTYKLWKARLEAYKELNQLFRNSVGDISRDDNIQIYWRDPTLFAQYITDSNVVAQEQAIVALNSLIDAFASSSLKNAHNITLISTWTPLLVEKGLTSSRATTKTQSMSCILSLCGLDTSITQSVELVIPFFEKKLPKLIAAAANCVYELMAAFGLTNVNVQTFLPELLKHVPQLAGHGDRNVRSQTMNLIVEIYKVTGNNSDLLEEILFKKLKPIQVKDLHKLFAKVGDEPSSSKMLFEWEKRELEKKRSQEEEARKRKSILSNDEGEYQIDKDGDTLMGMETDMPPSKQQSGVQIDTFSMLPEETILDKLPKDFQERITSSKWKDRVEALEEFWDSVLSQTKKLKSTSQNYSNLLGIYGHIIQKDANIQAVALAAQSVELICDKLKTPGFSKDYVSLVFTPLLDRTKEKKPSVIEAIRKALLTICKYYDPLASSGRNEDMLKDILEHMKHKTPQIRMECTQLFNASMKEEKDGYSTLQRYLKDEVVPIVIQIVNDTQPAIRTIGFESFAILIKIFGMNTFVKTLEHLDNLKRKKIEETVKTLPNFSIASGSTHSTIETNKQTGPMENKFLLKKSSVLPSKRVASSPLRNDNKSKVNPIGSVASASKPSMVAANNKSRVLLTSKSLATPKNVVANSTDKNEKLIEEYKYRLQKLQNDEMIWTKERQSLLEKMNNTENYKIEMIKENEMLREQLKEAQSKLNEKNIQLRSKEIDVNKLSDRVLSLENELRNMEIELDRNKKRNDTNLQSMGTISSYSIPSSTVSSNYGVKSLSSALPFKEEEDVRRKEDVNYERRSSESIGDLPHRVNSLNIRPYRKNGTGVSSVSDDLDIDFNDSFASEESYKRAAAVTSTLKARIEKMKAKSRREGTTRT
notes: Stu2 (Stu2p), S. cerevisiae, residues 1-888; also called Stu2p; WT; source: E. coli Arctic Express, purified (His60 Superflow, Strep-Tactin); not shown: eGFP, C-terminal, kept
- stoichiometry N [1]: 2

- binding result [7]: binds
- binding result [8]: binds
- binding result [9]: binds
- binding result [10]: binds
B2: Stu2 TOG1 domain ('TOG1-tail', 1–317) (domain or fragment, S. cerevisiae, UniProt P46675 1-317, looked up)
chain: MSGEEEVDYTTLPLEERLTYKLWKARLEAYKELNQLFRNSVGDISRDDNIQIYWRDPTLFAQYITDSNVVAQEQAIVALNSLIDAFASSSLKNAHNITLISTWTPLLVEKGLTSSRATTKTQSMSCILSLCGLDTSITQSVELVIPFFEKKLPKLIAAAANCVYELMAAFGLTNVNVQTFLPELLKHVPQLAGHGDRNVRSQTMNLIVEIYKVTGNNSDLLEEILFKKLKPIQVKDLHKLFAKVGDEPSSSKMLFEWEKRELEKKRSQEEEARKRKSILSNDEGEYQIDKDGDTLMGMETDMPPSKQQSGVQIDTFS
notes: Stu2 (Stu2p), S. cerevisiae, TOG1 domain with tail, residues 1-317; source: expression and purification previously described (Ayaz et al., 2012, 2014)
